# System: sites of DNA damage in U2OS cells
# Assay: Recruitment of YFP-ALC1 to DNA breaks upon laser damage
# Type: cell-based, Homo sapiens
# Details: YFP-ALC1 R860W background, 405 nm laser damage
# Protocol: U2OS Flp-In T-REx cells were a kind gift from Durocher lab and maintained in DMEM medium (GIBCO/Thermo Fisher) supplemented with 10% FBS and Pen/Strep with 15.5 μg/ml zeocin (Invitrogen) and 4 μg/ml blasticidin. CRISPR inactivation of ALC1 was carried out in Flp-In T-REx U2OS cells by transiently expressing Cas9 and gRNA targeting Exon3 of ALC1 F-oligo: CACCGCAG GAAGATTAAATGATGAA R-oligo: […] with px459 (addgene) ([Ran et al., 2013]). Single cell clones were grown by limiting dilution and then screened for ALC1 expression by western blot. […]
# Cells were seeded on 8 well Lab-Tek chamber slides (Thermo Fisher Scientific). […] In order to monitor the association kineticsof YFP-tagged ALC1 at sites of laser micro-irradiation, the time evolution of YFP fluorescence in the damaged region of interest was recorded upon excitation with a 488 nm laser. Recruitment of YFP to bleached ROIs was analyzed in FIJI ([Schindelin et al., 2012]) and data were processed in R. In brief, nuclear masks were segmented by local thresholding. […] In order to quantify recruitment, the mean YFP fluorescence intensities at a given time point t (It) were normalized to the mean initial fluorescence intensities I0 of the same region of interest. Normalized intensities were additionally multiplied with BGI0/BGIt to correct for photobleaching, where BGI represents the background fluorescence intensity. […]
molecule,measurement,setting,value
"R611A/S612A: YFP-ALC1 with R611A/S612A linker mutation and R860W, expressed in U2OS cells (protein, UniProt Q86WJ1 1-897, looked up, variant R611A S612A R860W, YFP fusion, YFP-ALC1 with R611A/S612A linker mutation and R860W, expressed in U2OS cells) Chromodomain-helicase-DNA-bind …: MERAGATSRGGQAPGFLLRLHTEGRAEAARVQEQDLRQWGLTGIHLRSYQLEGVNWLAQRFHCQNGCILGDEMGLGKTCQTIALFIYLAGRLNDEGPFLILCPLSVLSNWKEEMQRFAPGLSCVTYAGDKEERACLQQDLKQESRFHVLLTTYEICLKDASFLKSFPWSVLVVDEAHRLKNQSSLLHKTLSEFSVVFSLLLTGTPIQNSLQELYSLLSFVEPDLFSKEEVGDFIQRYQDIEKESESASELHKLLQPFLLRRVKAEVATELPKKTEVVIYHGMSALQKKYYKAILMKDLDAFENETAKKVKLQNILSQLRKCVDHPYLFDGVEPEPFEVGDHLTEASGKLHLLDKLLAFLYSGGHRVLLFSQMTQMLDILQDYMDYRGYSYERVDGSVRGEERHLAIKNFGQQPIFVFLLSTRAGGVGMNLTAADTVIFVDSDFNPQNDLQAAARAHRIGQNKSVKVIRLIGRDTVEEIVYRKAASKLQLTNMIIEGGHFTLGAQKPAADADLQLSEILKFGLDKLLASEGSTMDEIDLESILGETKDGQWVSDALPAAEGGSRDQEEGKNHMYLFEGKDYSKEPSKEDRKSFEQLVNLQKTLLEKASQEGAALRNKGSVLIPGLVEGSTKRKRVLSPEELEDRQKKRQEAAAKRRRLIEEKKRQKEEAEHKKKMAWWESNNYQSFCLPSEESEPEDLENGEESSAELDYQDPDATSLKYVSGDVTHPQAGAEDALIVHCVDDSGHWGRGGLFTALEKRSAEPRKIYELAGKMKDLSLGGVLLFPVDDKESRNKGQDLLALIVAQHRDRSNVLSGIKMAALEEGLKKIFLAAKKKKASVHLPRIGHATKGFNWYGTERLIWKHLAARGIPTYIYYFPRSKSAVLHSQSSSSSSRQLVP",overall extent of ALC1 recruitment to sites of DNA damage,n ≥ 131 traces from 3 independent experiments,notably compromised the overall extent of ALC1 recruitment
same,recruitment kinetics at sites of DNA damage,"single-exponential half times, n ≥ 131 traces",only modestly delayed recruitment kinetics

# Reference: paper PMC7116876, “Mechanistic Insights into Regulation of the ALC1 Remodeler by the Nucleosome Acidic Patch” (Cell reports, 2020)
